From US20240216517A1 (CELLEMEDY, published 2024)

Biological target: T1, human transferrin receptor-Fc tag standard (human, UniProt P02786 89-760)
T1 construct: This is a bought standard coated on the ELISA plate; also called hTfR; not shown: Fc tag
Assay: ELISA, human transferrin receptor-Fc coated on the plate; Kd calculated from an expected saturation point, curve not saturated at 10000 nM
Procedure: Then, it was washed 3 times with 200 μl of PBST (PBS+Tween0.05%). An antibody (mouse anti-His tag antibody, Hisprobe) that specifically binds to the hexa-His tag was diluted 1/1000 in PBST, and the diluted solution was treated by 100 μl at room temperature for 1 hour.
Then, it was washed 3 times with 200 μl of PBST (PBS+Tween0.05%). TMB solution expressing coloration by reacting with HRP was treated by 100 μl at room temperature for 15 minutes. After 50 μl of 1M H₂SO₄ solution was treated, optical density was measured with TECAN at a wavelength of 450 nm. This was calculated using the Langmuir equation (Table 5, FIGS. 8 to 10).
FIG. 11 illustrates results of evaluation/comparison of the binding force of huHF_mutant1-dual and huHF_mutant2-dual to hTfR.

T1 sequence (P02786 89-760 limits assumed): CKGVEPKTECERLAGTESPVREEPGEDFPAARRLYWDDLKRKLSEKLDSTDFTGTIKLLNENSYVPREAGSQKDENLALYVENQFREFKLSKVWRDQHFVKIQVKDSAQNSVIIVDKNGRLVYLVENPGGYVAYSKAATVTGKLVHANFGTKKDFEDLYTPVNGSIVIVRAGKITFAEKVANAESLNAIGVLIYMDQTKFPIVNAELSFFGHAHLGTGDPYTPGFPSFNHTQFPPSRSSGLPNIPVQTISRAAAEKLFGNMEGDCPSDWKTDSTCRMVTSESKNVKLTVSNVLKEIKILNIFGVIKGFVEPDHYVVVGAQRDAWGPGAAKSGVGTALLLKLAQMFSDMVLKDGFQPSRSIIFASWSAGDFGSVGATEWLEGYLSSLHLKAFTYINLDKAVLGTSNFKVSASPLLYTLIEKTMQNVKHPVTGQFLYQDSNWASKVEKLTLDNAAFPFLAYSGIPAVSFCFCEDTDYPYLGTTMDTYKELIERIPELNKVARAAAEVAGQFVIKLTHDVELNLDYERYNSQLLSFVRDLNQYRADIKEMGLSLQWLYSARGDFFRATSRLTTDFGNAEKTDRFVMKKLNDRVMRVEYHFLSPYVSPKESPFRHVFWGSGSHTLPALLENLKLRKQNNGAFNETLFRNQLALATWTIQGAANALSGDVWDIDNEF

B1: huHF_Mutant2-dual (designed binder)
chain: MTTASTSQVRQNYHAASEAAINAQINLELYASYVYLSMSYYFDRDDVALKNFAKYFLHQSHEEREHAEKLMKLQNQRGGRIALADIQKPDCDGGSYGSLYAFDIDWESGLNAMECALHLEKNVNQSLLALHALATAKNDPHLCDFIETHYLNEQVKAIKELGDHVTNLRKMGAPESGLAEYLFDKHTLGDSDNESMPSFITLASLSTWEGYFDF
notes: It self-assembles into a 24-mer nanoparticle
Kd: ~4.4 µM
